Laboratory results from patent publication US9163330B2, “Bifunctional stapled polypeptides and uses thereof” (President and Fellows of Harvard College, priority 2009, dated 2015).
Positions of bridges follow the written chain, without caps; N, C: chain ends. Non-standard residues stand in square brackets, D forms with d. No end group written: not given here. S5 = C=CCCC[C@](C)(N)C(=O)O; βAla = NCCC(=O)O

System: Hela cells
Experiment: Confocal microscopy of Hela cells treated with FITC-conjugated SID-series peptides
Type: cell-based
Conditions: FITC-conjugated peptide, 10 μM, 6 hours, 37° C.
Experimental: HeLa cells were grown on chamber slides overnight. 10 mM FITC-SID peptides in DMSO stock solutions were diluted in cell media to a final concentration of 10 μM, along with a 10 μM DMSO control. Cells were incubated in peptide/vehicle solutions at 37° C. for 6 hours, then washed thoroughly with media and PBS, and fixed with 4% paraformaldehyde. Slides were stained with Vectashield™ Hardset with DAPI. Images were taken with a Zeiss 710 confocal microscope.

Row | Substance | cellular penetration
1 | βAla-VRRRI*MLL*AANYLER ([βAla]VRRRI[S5]MLL[S5]AANYLER; staple 7-11) [SID2] | robust cellular penetration
2 | βAla-VRRRIQMLLEAANK*ERR*R ([βAla]VRRRIQMLLEAANK[S5]ERR[S5]R; staple 16-20) [SID5] | robust cellular penetration
